The nature of this data set: amyloid nucleation score (Sup35N fusion, yeast selection) (log enrichment); library NNK1; higher = more nucleation; inactive = no reads after selection. In a few lines:
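Three technical output replicates were used for random libraries. Psi-negative yeast expressing peptides of 20 random codons fused to Sup35N were induced with 100 μM copper sulfate for 24 hours and grown 7 days at 30°C on medium lacking adenine and uracil, and input and output plasmid inserts were Illumina-sequenced, excluding sequences with under 100 input reads. The nucleation score is the DiMSum log enrichment of output over input reads, centred on the mode score of non-aggregating sequences.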

± gives the uncertainty stated by the source.

Among the data in the supplement of paper PMC12042874 are amyloid nucleation score values, retold here.

VMLPHHWSLNKNY: the amyloid nucleation score was determined as 0.264 ± 0.29.
MLGCVGSCTR came in with an amyloid nucleation score of -1.08 ± 1.1.
The same measure for YHWVMTASVCSPGELNYRSN: 0.363 ± 0.78; for VCRGGSSFLLNTKLVNT: 0.675 ± 0.33; for FLRELMRCIGASSTFLGVEK: -0.204 ± 0.29.
Next, AGCDNMIYMSTWVKWESN: 0.197 ± 0.31.
For the substance FRSAKAIMLEVN, the amyloid nucleation score was 0.048 ± 0.41.
The same measure for SSCKCRCGFD: -0.699 ± 0.67; for RMFNQAI: -0.394 ± 0.74.
The same measure for YKIGLT: -0.227 ± 0.48.
Next, MCNVGTVRAYSLIQGGIRQC: 0.373 ± 0.34.
Consider PFVYLVYCGNGNVFAAKYLS, for which the amyloid nucleation score stood at 6.217 ± 0.059.
Next, VDVRNWCIWDWKGLSAGVGG: -0.643 ± 0.41; TIVGWSITIVRLHSFIFFNG: 0.021 ± 0.35.
The same measure for HLSALLANSNLNKM: -0.359 ± 0.52; for LLYSERTIIPVDRYT: -0.686 ± 0.48.
The substance MCVILVELYQRGSWYTRKVM came in with an amyloid nucleation score of -0.206 ± 1.1.
Next, LKEDISPSELHTQLC: 0.81 ± 0.54; YIMILYRKGMFILRVFSLLL: -0.293 ± 0.24; QNVACSMH: 0.093 ± 0.57.
Next, CCIFIDFTVIALGRTLVVRH: -1.17 ± 1.2; GFRRGPVSSSV: 0.206 ± 0.67; AFLIIMSGSGNCICLRSLVS: -0.385 ± 0.3.
Consider VRGHKWVAWNWMRVARAEQE, for which the amyloid nucleation score was -0.257 ± 0.99.
Next, VAATGNYIIIDNVRLVHAFG: -0.987 ± 0.67; FIIEQANGQGYNYLHI: -0.481 ± 0.48; TYWMHCEWFSV: -1.4 ± 2.7.
The same measure for CDGLLYELRSVEWGKGKLNG: 0.438 ± 0.38.
The same measure for KGGSFVGLSTVQYLLASYAL: -0.153 ± 1.3; for FDLGHCIDSRRPGLCVMVLV: 0.035 ± 0.34; for KNTCKQMV: 0.242 ± 0.57.
In turn, DEDHFYTSRML displayed an amyloid nucleation score of 0.639 ± 1.1.
The same measure for GAFAFQKL: 0.358 ± 1.1; for RFRVVNSCSTKPLLNEKLFG: “inactive”; for ELKRGVHLRPE: 4.36 ± 0.14.
The same measure for MLVCDWKTDLGNI: 0.811 ± 0.64; for FVMLFRFRVVCRFV: “inactive”.
Substance IRIWSSREGFASIVWTCLMG showed an amyloid nucleation score of -0.32 ± 0.54.
The same measure for CIDYYLCLNMYRTGWYLRLC: “inactive”.
The same measure for ATFSFGRT: “inactive”; for FFTRGIVMQRRQHWNGVYGS: 0.737 ± 0.49.
Next, LFGSEVTWYLTSGCDKPFLH: 0.087 ± 0.48; ARTGCHKVYLAAACSYGRFS: 0.188 ± 0.34.
Turning to HCRNS, the amyloid nucleation score came out at 2 ± 0.3.
Consider GSSKWISSHRVIDDFSYKRG, for which the amyloid nucleation score came to 0.406 ± 0.49.
Substance RFFGKYSTEGLNL had an amyloid nucleation score of 0.992 ± 0.76.
In turn, VSCWRTVRTAF showed an amyloid nucleation score of 0.893 ± 0.59.
In turn, SNSMLISYSCEFTWGVGKVL gave an amyloid nucleation score of 0.242 ± 0.4.
The same measure for SHADVR: -0.027 ± 0.83.
Next, SLIRLCVAVTSTSNPGWPLL: 3.09 ± 0.12.
The same measure for HGYSNNVARYWA: 0.372 ± 1.4.
Take YLSCLNFRLGSMFMRSL: the amyloid nucleation score turned out to be 0.653 ± 0.93.
Turning to VMSATVSSFWTEVCRMRTVT, the amyloid nucleation score was 1.14 ± 0.66.
The same measure for VGSLGM: -0.221 ± 0.37; for LEKINQVSGLDFRRIEFEPS: -0.172 ± 1.2; for GWLIR: “inactive”.
The same measure for YWKSIRPILIEC: “inactive”; for VGQLSTFCLGILIVLSVN: 0.338 ± 0.18.
As to SIRLPVIKRSRL, the amyloid nucleation score was -0.109 ± 0.66.
The same measure for DVAARVQKNCPVIIGAIRSK: 0.091 ± 1.6; for EHLRFKKANNVLYVNESSSV: -1.59 ± 1.3; for WYAGFTGRFRSLFFIISIFG: -0.529 ± 1.
The same measure for LSHLLMRCGCIRLFVISMRE: 0.448 ± 0.49.
Next, QQSQC: “inactive”.
Substance SRNLCSQSWIRTATV displayed an amyloid nucleation score of 0.585 ± 0.56.
The same measure for SILMWLNLARSLGTIYLLFV: 0.046 ± 0.76; for WSSPQEQT: -1.59 ± 1.5; for RWKRVIMSQHQVVYVNSWMV: -0.484 ± 1.9.
Next, AKSELHYSRFYFTLGVMKSL: -0.138 ± 0.48; PMRACHCCFGCTKSLAHDSN: 0.912 ± 0.53; YRSSVL: -0.514 ± 0.29.
As to TEKAPGTGAKQANSKSSAYA, the amyloid nucleation score entry was “inactive”.
ARYGVSGHAYDTNPRRYFGQ displayed an amyloid nucleation score of -0.903 ± 2.4.
The substance DSSMWFTASLYSYVLLSLNL yielded an amyloid nucleation score of 0.73 ± 0.36.
Next, QLVTVADLLTKFPGILSWSG: “inactive”.
The substance CKKSCGSVRSNASLTKDWSN came in with an amyloid nucleation score of -0.097 ± 0.28.
Next, FKRSLRCLYVVACNALYWDA: -0.026 ± 0.51; IKTAFMVMNNGKDVMSRSWG: 0.402 ± 0.4; CTLVDHYWGCEGRSCARCSS: 0.233 ± 0.55.
In the case of LSMRIQAQMIVAWPTKHPIL, the amyloid nucleation score stood at 4.99 ± 0.12.
Next, TKWAVDY: 0.347 ± 0.28; TLVFRYKSDGCQSLRVRLTF: 0.084 ± 0.32; YNWVGIDRMGFYTFSVGLVC: -0.375 ± 0.38.
FFLSLARVGVILHPMMVLTG had an amyloid nucleation score of -0.35 ± 0.64.
Substance AAVMCAIDLIGLNFGLGNWK returned an amyloid nucleation score of 7.816 ± 0.052.
In turn, MLLWQRSGMQLLAGLSHRVR yielded an amyloid nucleation score of -0.702 ± 0.99.
The same measure for HGLVNG: 0.437 ± 0.52; for LGHIILSAFFYRSFNLEVSL: “inactive”; for KAFRMLGGFNSYRNFNIILK: 3.96 ± 0.079.
SQMLELVFK had an amyloid nucleation score of 0.818 ± 0.75.
The same measure for FTVLWCRSMLGC: -0.111 ± 0.4.
The same measure for CYKAAQGFIFSRK: 0.482 ± 0.32; for RSQVSSFTYSPSRATPKRRL: 0.508 ± 0.5.
The substance FGLCCRSRVFWRWLIKDWKD had an amyloid nucleation score of -0.566 ± 1.9.
Next, GTTVPGFCITKSVKTMGRNQ: 0.643 ± 0.39; RSSCKTTLEIIGVLRMRVYA: 0.769 ± 0.45.
Next, LRSSEYWSLMEVDLVMDSLP: 0.629 ± 0.97; FNLSVKAY: -0.581 ± 1.6.
Next, RLAWPRKSSSCN: 0.774 ± 0.45.
Regarding FLIIIRPISRRTCRVCFKQT, the amyloid nucleation score is -0.246 ± 0.44.
The same measure for VVMQACNLNMCFMNGCRRGC: 7.304 ± 0.045; for PIHPRTLMG: 0.117 ± 0.59; for PIEHDEWLTVMVYCDGRLLA: -0.894 ± 2.4.
The same measure for FTKGNYCSGLLGSSSRWTPF: 0.926 ± 0.74.
